{"source": "paper PMC8395244", "about": "“The Oxoglutarate Binding Site and Regulatory Mechanism Are Conserved in Ammonium Transporter Inhibitors GlnKs from Methanococcales” (International Journal of Molecular Sciences, 2021)", "proteins": {"B1": {"name": "GlnK1 from Methanocaldococcus jannaschii without a C-terminal tag (MjGlnK1^woT) (natural protein)", "chain": "MKKVEAIIRPEKLEIVKKALSDAGYVGMTVSEVKGRGVQGGIVERYRGREYIVDLIPKVKIELVVKEEDVDNVIDIICENARTGNPGDGKIFVIPVERVVRVRTKEEGKEAL", "notes": "GlnK1, PII-family protein, of Methanocaldococcus jannaschii strain DSM 2661; codon-optimised synthetic gene cloned NdeI/XhoI in pET-24b(+) with a stop codon upstream of the XhoI site, so without a tag; Produced and crystallised without a tag; the crystals came from the gel filtration pool that eluted at 66 mL; also called MjGlnK1^woT-Mg-ATP/2OG; MjGlnK1 with ATP, Mg and 2OG; source: E. coli …"}}, "biological_target": "the molecule itself", "assay": "crystal structure; sitting drop at 18 °C; crystallised with or without 2 mM ATP, 2 mM 2OG and 2 mM MgCl2; solved by molecular replacement with PDB 2J9D", "data": [{"protein": "B1", "values": [{"measurement": "stoichiometry N", "result": 3}]}]}
